This note sets out measurements from US20160030544A1 (published 2016).

The target in this experiment is fHbp v2.22 WT. The experiment in a line: SPR. A general note: In SPR one partner is held on a chip, and binding of the other changes the refractive index at the surface.

B1: fH6-7 (other)
chain: TLKPCDYPDIKHGGLYHENMRRPYFPVAVGKYYSYYCDEHFETPSGSYWDHIHCTQDGWSPAVPCLRKCYFPYLENGYNQNYGRKFVQGKSIDVACHPGYALPKAQTTVTCMENGWSPTPRCI
One may read the Kd as a measure of binding affinity in units of concentration. A high value points to lower affinity. Turning to B1, the dissociation constant (Kd) is 0.3 nM.
